Assay [1] deals with His-tagged Importin β (Impβ), H. sapiens, from pQE60-Impβ (human) (UniProt Q14974). Put plainly: ITC. (In ITC the heat of successive injections is recorded.)
In assay [2] the target is His-tagged Importin β (Impβ), H. sapiens, from pQE60-Impβ (human, UniProt Q14974 1-876). Put plainly: ITC.
Assay [3] concerns the target Importin β (hsImpβ) of the purified trimeric complex Impβ:Imp7:H1.11L-chick (human, UniProt Q14974 1-876). Briefly: cross-linking.

Residue numbers refer to the chain shown, from its start. Names and notes keep the numbering of the source.

His-tagged Importin β (Impβ), H. sapiens, from pQE60-Impβ, sequence (Q14974 whole entry): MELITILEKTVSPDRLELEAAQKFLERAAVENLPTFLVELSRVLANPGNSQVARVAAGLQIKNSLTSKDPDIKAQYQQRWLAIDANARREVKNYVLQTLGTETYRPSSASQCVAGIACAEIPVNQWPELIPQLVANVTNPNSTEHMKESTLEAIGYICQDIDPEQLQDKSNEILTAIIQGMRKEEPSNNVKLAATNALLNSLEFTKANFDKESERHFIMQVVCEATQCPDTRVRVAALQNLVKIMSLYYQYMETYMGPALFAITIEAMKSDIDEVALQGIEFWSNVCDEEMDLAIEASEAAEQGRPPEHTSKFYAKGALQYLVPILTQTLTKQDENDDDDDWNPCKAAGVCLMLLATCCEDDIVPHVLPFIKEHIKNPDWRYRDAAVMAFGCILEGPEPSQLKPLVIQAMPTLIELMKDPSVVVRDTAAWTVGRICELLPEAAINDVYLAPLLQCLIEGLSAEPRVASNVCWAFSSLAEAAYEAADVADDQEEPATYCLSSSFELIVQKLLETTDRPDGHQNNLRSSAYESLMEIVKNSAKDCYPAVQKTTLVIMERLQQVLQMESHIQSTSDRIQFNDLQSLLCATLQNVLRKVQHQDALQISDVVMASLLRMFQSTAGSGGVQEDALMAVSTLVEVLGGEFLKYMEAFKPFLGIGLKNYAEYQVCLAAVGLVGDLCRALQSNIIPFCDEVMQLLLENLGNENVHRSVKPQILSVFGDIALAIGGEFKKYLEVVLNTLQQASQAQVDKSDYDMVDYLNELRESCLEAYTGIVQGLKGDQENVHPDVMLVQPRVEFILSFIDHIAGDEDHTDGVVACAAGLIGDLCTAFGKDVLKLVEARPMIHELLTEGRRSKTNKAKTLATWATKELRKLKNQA
His-tagged Importin β (Impβ), H. sapiens, from pQE60-Impβ (human), sequence (Q14974 whole entry): as above
Importin β (hsImpβ) of the purified trimeric complex Impβ:Imp7:H1.11L-chick, sequence (Q14974 whole entry, one chain of several): as the sequence (Q14974 whole entry) above

Consider “GST-tagged Imp7 (1002-1038) fragment V1023T (domain or fragment)”, for which the fold reduction of affinity against the wild-type NlB region (1002-1038) in assay [1] came to 4 fold.

The molecule “GST-tagged Imp7 (1002-1038) fragment P1024G (domain or fragment)” showed a fold reduction of binding against the wild-type NlB region (1002-1038) in assay [1] of 7 fold. Regarding “GST-tagged Imp7 (1002-1038) fragment V1023E (domain or fragment)”, in assay [1], the fold reduction of affinity against the wild-type NlB region (1002-1038) is 15 fold.

B1: GST-NlB 1016-1030 (domain or fragment, X. laevis, UniProt O42480 1016-1030, looked up)
chain: GYKFNAPVVPSTFNF
Turning to B1, in assay [2], the “fold reduction of affinity against the NlB region (1002-1038)” value was ~4 fold.

B2: GST-tagged Imp7 (1002-1038) fragment F1019Y (domain or fragment, X. laevis, UniProt O42480 1002-1038, looked up)
chain: RRAAHESKMIEKHGGYKYNAPVVPSTFNFGNPAPGMN
B2: the “fold reduction of affinity against the wild-type NlB region (1002-1038)” value in assay [2] was ≥ 5 fold.

B3: GST-tagged Imp7 (1002-1038) fragment F1030Y (domain or fragment, X. laevis, UniProt O42480 1002-1038, looked up)
chain: B2 chain with Y18F, F29Y
On to B3, for which the “fold reduction of affinity against the wild-type NlB region (1002-1038)” value in assay [2] was ≥ 5 fold.

B4: GST-tagged Imp7 (1002-1038) fragment F1028Y (domain or fragment, X. laevis, UniProt O42480 1002-1038, looked up)
chain: B2 chain with Y18F, F27Y
In the case of B4, in assay [2], the “fold reduction of affinity against the wild-type NlB region (1002-1038)” value was ≥ 5 fold.

B5: GST-tagged Imp7 (1002-1038) fragment N1032G (domain or fragment, X. laevis, UniProt O42480 1002-1038, looked up)
chain: B2 chain with Y18F, N31G
As to B5, the “fold increase of affinity against the wild-type NlB region (1002-1038)” value in assay [2] was ~2 fold.

B6: GST-tagged Imp7 (1002-1038) fragment N1029S (domain or fragment, X. laevis, UniProt O42480 1002-1038, looked up)
chain: B2 chain with Y18F, N28S
With B6, the “fold increase of affinity against the wild-type NlB region (1002-1038)” value in assay [2] was ~2 fold.

B7: Histone H1.11L from chicken (natural protein, chicken (Gallus gallus), UniProt P08287 1-225, looked up)
chain: MSETAPAPAAEAAPAAAPAPAKAAAKKPKKAAGGAKARKPAGPSVTELITKAVSASKERKGLSLAALKKALAAGGYDVEKNNSRIKLGLKSLVSKGTLVQTKGTGASGSFRLSKKPGEVKEKAPKKKASAAKPKKPAAKKPAAAAKKPKKAVAVKKSPKKAKKPAASATKKSAKSPKKVTKAVKPKKAVAAKSPAKAKAVKPKAAKPKAAKPKAAKAKKAAAKKK
For the molecule B7, the binding result in assay [3] was “binds”.

(Values after article doi:10.1101/2025.08.04.668392 (bioRxiv, 2025).)
